Source: patent US6756229B1, “Human cell line showing stable expression of cytochromes P450” (Takeda Chemical Industries, Ltd., priority 1999, dated 2004)

What was measured:
[1] = substrate: CC(=O)O[C@H]1C(=O)[C@@]2(C)[C@H]([C@H](OC(=O)c3ccccc3)[C@]3(O)C[C@H](OC(=O)[C@H](O)[C@@H](NC(=O)c4ccccc4)c4ccccc4)C(C)=C1C3(C)C)[C@]1(OC(C)=O)CO[C@@H]1C[C@@H]2O
[2] = substrate: CCOc1ccc2nc3ccc(=O)cc-3oc2c1; test: Kinetic analysis, 7-ethoxyresorufin O-deethylase activity in Hepc/1A1.4; format: cell-based, human; conditions: other: Hepc/1A1.4, Lineweaver-Burk plot, 37.0 °C
Protocol: (§1) After 1800 μl of methanol (Wako Junyaku K. K) was added to 300 μl of the reaction solution and insoluble material was removed by centrifugation, fluorescent intensity was measured at an excited wavelength of 550 nm and a fluorescence wavelength of 586 nm using a spectrofluorometer to quantify the resorufin formed. The product purchased from Molecular Probes was used as the standard substance for resorufin (Molecular Probes).

[3] = substrate: CCOc1ccc2nc3ccc(=O)cc-3oc2c1; test: Kinetic analysis, 7-ethoxyresorufin O-deethylase activity in Hepc/1A2.9; format: cell-based, human; conditions: other: Hepc/1A2.9, Lineweaver-Burk plot, 37.0 °C
Protocol: as §1

[4] = substrate: O=[N+]([O-])c1ccc(O)cc1; test: Kinetic analysis, p-nitrophenol hydroxylase activity in Hepc/2E1.3-8; format: cell-based, human; conditions: other: Hepc/2E1.3-8, Lineweaver-Burk plot, 37.0 °C
Excerpt: 4-Nitrocatechol purchased from Wako Junyaku K. K. was used as the standard substance.

B1: CYP2C8 (Homo sapiens) (protein)
chain: MEPFVVLVLCLSFMLLFSLWRQSCRRRKLPPGPTPLPIIGNMLQIDVKDICKSFTNFSKVYGPVFTVYFGMNPIVVFHGYEAVKEALIDNGEEFSGRGNSPISQRITKGLGIISSNGKRWKEIRRFSLTTLRNFGMGKRSIEDRVQEEAHCLVEELRKTKASPCDPTFILGCAPCNVICSVVFQKRFDYKDQNFLTLMKRFNENFRILNSPWIQVCNNFPLLIDCFPGTHNKVLKNVALTRSYIREKVKEHQASLDVNNPRDFIDCFLIKMEQEKDNQKSEFNIENLVGTVADLFVAGTETTSTTLRYGLLLLLKHPEVTAKVQEEIDHVIGRHRSPCMQDRSHMPYTDAVVHEIQRYSDLVPTGVPHAVTTDTKFRNYLIPKGTTIMALLTSVLHDDKEFPNPNIFDPGHFLDKNGNFKKSDYFMPFSAGKRICAGEGLARMELFLFLTTILQNFNLKSVDDLKNLNTTAVTKGIVSLPPSYQICFIPV
[1]
  Km: 7.4 µM
  Vmax: 9e-09 µmol/min/mg

B2: CYP1A1 (Homo sapiens) (protein)
chain: MLFPISMSATEFLLASVIFCLVFWVIRASRPQVPKGLKNPPGPWGWPLIGHMLTLGKNPHLALSRMSQQYGDVLQIRIGSTPVVVLSGLDTIRQALVRQGDDFKGRPDLYTFTLISNGQSMSFSPDSGPVWAARRRLAQNGLKSFSIASDPASSTSCYLEEHVSKEAEVLISTLQELMAGPGHFNPYRYVVVSVTNVICAICFGRRYDHNHQELLSLVNLNNNFGEVVGSGNPADFIPILRYLPNPSLNAFKDLNEKFYSFMQKMVKEHYKTFEKGHIRDITDSLIEHCQEKQLDENANVQLSDEKIINIVLDLFGAGFDTVTTAISWSLMYLVMNPRVQRKIQEELDTVIGRSRRPRLSDRSHLPYMEAFILETFRHSSFVPFTIPHSTTRDTSLKGFYIPKGRCVFVNQWQINHDQKLWVNPSEFLPERFLTPDGAIDKVLSEKVIIFGMGKRKCIGETIARWEVFLFLAILLQRVEFSVPLGVKVDMTPIYGLTMKHACCEHFQMQLRS
notes: expressed in transfected cells
[2]
  Km: 0.25 µM
  Vmax: 5.6e-05 µmol/min/mg

B3: CYP1A2 (Homo sapiens) (protein)
chain: MALSQSVPFSATELLLASAIFCLVFWVLKGLRPRVPKGLKSPPEPWGWPLLGHVLTLGKNPHLALSRMSQRYGDVLQIRIGSTPVLVLSRLDTIRQALVRQGDDFKGRPDLYTSTLITDGQSLTFSTDSGPVWAARRRLAQNALNTFSIASDPASSSSCYLEEHVSKEAKALISRLQELMAGPGHFDPYNQVVVSVANVIGAMCFGQHFPESSDEMLSLVKNTHEFVETASSGNPLDFFPILRYLPNPALQRFKAFNQRFLWFLQKTVQEHYQDFDKNSVRDITGALFKHSKKGPRASGNLIPQEKIVNLVNDIFGAGFDTVTTAISWSLMYLVTKPEIQRKIQKELDTVIGRERRPRLSDRPQLPYLEAFILETFRHSSFLPFTIPHSTTRDTTLNGFYIPKKCCVFVNQWQVNHDPELWEDPSEFRPERFLTADGTAINKPLSEKMMLFGMGKRRCIGEVLAKWEIFLFLAILLQQLEFSVPPGVKVDLTPIYGLTMKHARCEHVQARLRFSIN
notes: as for B2
[3]
  Km: 0.72 µM
  Vmax: 1.6e-06 µmol/min/mg

B4: CYP2E1 (Homo sapiens) (protein)
chain: MSALGVTVALLVWAAFLLLVSMWRQVHSSWNLPPGPFPLPIIGNLFQLELKNIPKSFTRLAQRFGPVFTLYVGSQRMVVMHGYKAVKEALLDYKDEFSGRGDLPAFHAHRDRGIIFNNGPTWKDIRRFSLTTLRNYGMGKQGNESRIQREAHFLLEALRKTQGQPFDPTFLIGCAPCNVIADILFRKHFDYNDEKFLRLMYLFNENFHLLSTPWLQLYNNFPSFLHYLPGSHRKVIKNVAEVKEYVSERVKEHHQSLDPNCPRDLTDCLLVEMEKEKHSAERLYTMDGITVTVADLFFAGTETTSTTLRYGLLILMKYPEIEEKLHEEIDRVIGPSRIPAIKDRQEMPYMDAVVHEIQRFITLVPSNLPHEATRDTIFRGYLIPKGTVVVPTLDSVLYDNQEFPDPEKFKPEHFLNENGKFKYSDYFKPFSTGKRVCAGEGLARMELFLLLCAILQHFNLKPLVDPKDIDLSPIHIGFGCIPPRYKLCVIPRS
notes: as for B2
[4]
  Km: 88 µM
  Vmax: 0.00012 µmol/min/mg
